Measured values from US20100136539A1.

Key:
Ezrin (human) [1] = biological target: Ezrin (human) (UniProt P15311); assay: Vidas sandwich ELISA, 1/50 Caco2 lysate; negative control as capture, detection 4G11B5-biotin
Ezrin (human) [2] = biological target: Ezrin (human) (UniProt P15311); assay: Vidas sandwich ELISA, 1/50 Caco2 lysate; negative control as capture, detection 4A7A6C1-biotin

Sequence of UniProt P15311 (P15311 whole entry): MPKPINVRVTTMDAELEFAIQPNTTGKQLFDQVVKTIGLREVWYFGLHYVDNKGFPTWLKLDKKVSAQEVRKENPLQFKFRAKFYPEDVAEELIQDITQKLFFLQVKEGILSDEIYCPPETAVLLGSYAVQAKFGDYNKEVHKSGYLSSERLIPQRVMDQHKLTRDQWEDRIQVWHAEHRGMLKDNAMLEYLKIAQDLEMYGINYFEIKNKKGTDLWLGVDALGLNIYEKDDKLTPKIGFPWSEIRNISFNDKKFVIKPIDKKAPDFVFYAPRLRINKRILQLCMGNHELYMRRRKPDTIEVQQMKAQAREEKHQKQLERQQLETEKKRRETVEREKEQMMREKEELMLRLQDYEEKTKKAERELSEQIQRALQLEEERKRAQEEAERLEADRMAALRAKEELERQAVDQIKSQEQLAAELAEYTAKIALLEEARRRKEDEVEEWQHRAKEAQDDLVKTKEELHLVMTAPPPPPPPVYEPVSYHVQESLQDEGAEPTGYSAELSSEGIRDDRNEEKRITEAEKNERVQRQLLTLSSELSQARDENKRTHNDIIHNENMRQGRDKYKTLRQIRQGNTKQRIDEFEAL

Vidas sandwich immunoassay signal (Ezrin (human) [1]): 2.5 RFV
Vidas sandwich immunoassay signal (Ezrin (human) [2]): 3 RFV
Substance: Negative control
